Test results from patent publication US20090018083A1.

Experiments:
[1] = target: BCL6-3C BTB domain (human BCL6 residues 5-129 with C8Q/C67R/C84N) (human) (UniProt P41182); assay: SPR, biotinylated peptide on streptavidin chip, BCL6-3C BTB domain injected
[2] = target: GAL4-BTB^BCL6 (GAL4 DNA binding domain fused to the wild-type BCL6 BTB domain) (human); assay: cell-based or functional assay

Sequence of N-CoR^1351-1383 peptide, biotinylated, immobilised for SPR (Q60974 1351-1383): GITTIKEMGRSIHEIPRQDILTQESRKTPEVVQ

## N-CoR^1351-1383 peptide, biotinylated, immobilised for SPR
[1]
  fold stronger affinity relative to SMRT^1414-1441: 2.5 fold

## full-length BCoR (from UniProt Q6W2J9 1-1721)
[2]
  enhancement of repression in reporter assays: 2 to 3 fold
